Reference: patent US7910100B2, “Antibodies directed to the mammalian EAG1 ion channel protein” (Max-Planck-Gesellschaft zur Forderung der Wissen, priority 2004, dated 2011)

Test system: Eag1
Assay: BIAcore binding analysis on Eag1 C-terminus and H5 region
Conditions: 10 μg/ml antibody, flow rate 20 μl/min; chips coated with Eag1 C-terminus (aa 694 to 962) or H5 region (aa 374 to 452)
Method: In order to analyse cross-reactivity of anti-Eag1 antibodies of the invention with the most homologous Eag family member Eag2 a BIAcore™ binding analysis was performed. BIAcore chips were coated with Eag1 C-terminus (amino acids 694 to 962), the H5 region (amino acids 374 to 452) or Eag2 (the equivalent regions fused in a single construct). The interaction with anti-Eag1 antibodies ImAb1 and ImAb3 were analysed using 10 μg/ml antibody at a flow rate of 20 μl/min.

B1: ImAb1: mouse monoclonal anti-Eag1 antibody; VL SEQ ID NO: 43, VH SEQ ID NO: 44; binds C-terminus of Eag1 (antibody, listed as Mus musculus)
heavy: MNFGFSLIFLVLVLKGVQCEVKLVESGGGLVKPGGSLKLSCAASGFTFSNYAMSWVRQTPEKRLEWVASISSDGDTYFPDNVKGRFTISRENAGNILFLQMSSLRSEDTAMYYCARGFMITFWGQGTLVTVSAAKTTPPSVYPLAPGCGDTTGSSVTLGCLVKGYFPESVTVTWNSGSLSSSVHTFPALLQSGLYTMSSSVTVPSSTWPSQTVTCSVAHPASSTTVD
light: MDMRAPAQFFGILLLWFPGIRCDIKMTQSPSSMYASLGERVTITCKASQDIKSYLSWYQQKPWKSPKILIYYATSLADGVPSRISGSGSGQDYSLTISSLESDDTATYYCLQHGESPYTFGGGTKLEIKRADAAPTVSIFPPSSEQLTSGGASVVCFLNNFYPKDINVKWKIDGSERQNGVLNSWTDQDSKDSTYSMSSTLTLTKDEYERHNSYTCEATHKTSTSPIVKSFNRNEC
  binding region on Eag1 antigen: specifically binds to the C-terminus of the Eag1 antigen
